B1: library; numbered along this chain (parent)
chain: MRKPRAAVGSGHRKQAASQEGRQKHAKNNSQAKPSACDGLARQPEEVVLQASVSSYHLFRDVAEVTAFRGSLLSWYDQEKRDLPWRRRAEDEMDLDRRAYAVWVSEVMLQQTQVATVINYYTGWMQKWPTLQDLASASLEEVNQLWAGLGYYSRGRRLQEGARKVVEELGGHMPRTAETLQQLLPGVGRYTAGAIASIAFGQATGVVDGNVARVLCRVRAIGADPSSTLVSQQLWGLAQQLVDPARPGDFNQAAMELGATVCTPQRPLCSQCPVESLCRARQRVEQEQLLASGSLSGSPDVEECAPNTGQCHLCLPPSEPWDQTLGVVNFPRKASRKPPREESSATCVLEQPGALGAQILLVQRPNSGLLAGLWEFPSVTWEPSEQLQRKALLQELQRWAGPLPATHLRHLGEVVHTFSHIKLTYQVYGLALEGQTPVTTVPPGARWLTQEEFHTAAVSTAMKKVFRVYQGQQPGTCMGSKRSQVSSPCSRKKPRMGQQVLDNFFRSHISTDAHSLNSAAQ

Variants of: B1
Experiment: 8OG:A repair function score (normalized; synonymous = 0, nonsense = -1) (normalized log-likelihood score); higher = more repair activity (WT-like)
Conditions: with 8OG:A DNA repair reporter (GFP) in HEK-293 MUTYH KO cells
How it was run: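 GFP+ (repair) and GFP− bins of viable mCherry+ cells were collected at 72 h from MUTYH knockout HEK-293 cells bearing lentiviral MUTYH cDNA NNN codon-scan libraries in 10 pg/ml doxycycline, co-transfected with an 8OG:A GFP repair reporter and mCherry. Tile amplicons were sequenced, and per-tile Rosace fitness scores were normalized to a repair function score anchored on synonymous and nonsense distributions. Synonymous medians were set to 0 and nonsense to -1, with variants under 300 counts per million at the start removed.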
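Further: cells sorted at 72 h after reporter transfection.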

Variant	8OG:A repair function score
A36K	-0.187
V379M	-0.148
R154W	-1.03
R340F	-0.491
S459F	-0.45
D96P	-0.177
R213H	-1.03
E167I	-0.0169
A89I	-0.0304
G205P	0.0348
V207H	-0.941
W128K	-0.455
I359T	0.0861
S270A	-0.0829
P365H	-0.038
L83D	-1.02
P273L	-0.946
M496N	0.00145
A115G	-0.0228
D82S	-0.0969
S153Y	-0.143
T440M	-0.109
P306D	-0.0656
Q159K	0.0628

Variant	8OG:A repair function score
Y76M	-1.2
R364P	-0.519
Q394E	0.261
Q78H	-0.0658
L134S	-0.514
S480R	0.00162
Y151P	-1.25
E92Q	-0.0495
V62T	0.00595
G155W	-0.265
Q282L	-0.0273
V166H	-0.183
V274D	-1.01
R88G	-0.107
N251V	-0.84
H57W	-1.09
S486F	0.00694
G434Y	0.0378
G123Y	-0.191
R495E	0.0282
G356A	-0.11
R398S	-0.426
R175V	-0.148
L180C	-0.258

Variant	8OG:A repair function score
M173S	-0.859
A519C	-0.00674
L257Y	-0.76
W235H	-0.343
P34M	0.176
P377Y	-0.964
N329S	-0.235
F505T	0.0174
T176N	0.0341
V206S	-0.585
P404E	0.341
T417I	-0.142
G429Q	-0.283
Q484K	0.0117
K481Y	-0.0542
G356E	-0.141
K390M	-0.0263
S510H	0.0212
Y152T	-0.854
T263R	-0.0312
D61H	-0.208
G171I	-0.703
G161D	-0.688
L313S	-0.292

Variant	8OG:A repair function score
P437N	-0.284
Q181F	-0.0623
A135E	-0.996
T380Y	0.0876
Q498P	-0.0275
C304E	-0.556
A115I	-0.0495
E178T	0.0829
F59L	-0.095
R398G	-0.102
F505I	0.0133
E90A	0.00572
G171D	-0.296
L158Q	-1.31
S318E	0.0139
C347N	-1.21
L145N	0.0178
P365S	-0.116
E433A	0.0651
W146C	-0.255
K464F	-0.702
R88A	0.00657
R266S	-0.0823
G412T	-0.494

Variant	8OG:A repair function score
G297C	0.00942
A391N	-0.196
Q363E	-0.341
D91I	0.00656
E106C	-1.19
L58A	0.00209
V328I	-0.0358
S343F	-0.0296
V104Q	-1.17
W399Y	0.509
R60M	0.00468
S507T	0.0162
S518C	-0.0625
R495Y	-0.0924
R246M	-0.559
A357S	0.0171
A63Q	-0.105
V427D	-1.2
E302F	-0.253
R2D	-0.112
W447E	-1.14
L139Y	-0.0177
S518K	-0.0195
M462E	-0.603

Variant	8OG:A repair function score
P338H	-0.0311
A354C	-0.078
R340C	-0.18
Q132T	0.0372
N307A	-0.0752
S378Q	0.0825
E140Y	-0.187
E167Y	0.0239
Q265T	0.00721
V187L	-0.609
P247H	-0.982
F376D	-0.964
G70P	-0.126
Q472G	-0.000609
G401N	0.111
P44W	-0.102
Q202N	-0.274
L387C	-0.171
I221Q	-1.03
R2P	-0.00444
A177D	-0.363
F453P	-0.896
E45Q	-0.0405
T380C	-0.0502

Variant	8OG:A repair function score
E451P	-0.158
G353Q	-0.109
P306Y	-0.0217
A254R	-0.99
I509V	0.0164
V458M	-0.204
S227N	0.126
Q43V	-0.0464
S378T	0.295
T455S	0.128
E79L	-0.0186
Q351P	-0.756
L396E	-1.07
P84M	-1.8
L241D	-0.924
L83A	-0.379
E303I	-0.101
I195S	-0.944
R42Y	0.0172
V48Y	-0.141
I421G	-0.609
D208E	-0.991
N503A	0.0125

Source: the supplement of paper PMC11908140
